Data: patent US20060115479A1 (INTERCELL, published 2006)

What was measured:
human fibrinogen (human) [1] = target: human fibrinogen (human) (UniProt P02671); assay: FITC-labelled bacteria on immobilized fibrinogen; less than 2% of the fbsA mutants bound (FIG. 23)
human fibrinogen (human) [2] = target: human fibrinogen (human) (UniProt P02671); assay: FITC-labelled bacteria on fibrinogen-coated Terasaki plates; less than 2% of the fbsA mutant bound
human fibrinogen (human) [3] = target: human fibrinogen (human) (UniProt P02671); assay: 125I-fibrinogen bound to whole bacteria; fbsA deletion mutant bound less than 2%
human fibrinogen (human) [4] = target: human fibrinogen (human) (UniProt P02671); assay: radiolabelled soluble human fibrinogen bound to whole GBS 6313 cells; the filing later attributes the binding to FbsA
human fibrinogen [5] = target: T1, human fibrinogen (human, UniProt P02671 20-629; P02675 31-491; P02679 27-437); assay: dot blot / SPOT membrane overlaid with human fibrinogen (FIG. 11)
T1 construct: also called 125I-labelled fibrinogen; immobilized fibrinogen
T1 sequence 1: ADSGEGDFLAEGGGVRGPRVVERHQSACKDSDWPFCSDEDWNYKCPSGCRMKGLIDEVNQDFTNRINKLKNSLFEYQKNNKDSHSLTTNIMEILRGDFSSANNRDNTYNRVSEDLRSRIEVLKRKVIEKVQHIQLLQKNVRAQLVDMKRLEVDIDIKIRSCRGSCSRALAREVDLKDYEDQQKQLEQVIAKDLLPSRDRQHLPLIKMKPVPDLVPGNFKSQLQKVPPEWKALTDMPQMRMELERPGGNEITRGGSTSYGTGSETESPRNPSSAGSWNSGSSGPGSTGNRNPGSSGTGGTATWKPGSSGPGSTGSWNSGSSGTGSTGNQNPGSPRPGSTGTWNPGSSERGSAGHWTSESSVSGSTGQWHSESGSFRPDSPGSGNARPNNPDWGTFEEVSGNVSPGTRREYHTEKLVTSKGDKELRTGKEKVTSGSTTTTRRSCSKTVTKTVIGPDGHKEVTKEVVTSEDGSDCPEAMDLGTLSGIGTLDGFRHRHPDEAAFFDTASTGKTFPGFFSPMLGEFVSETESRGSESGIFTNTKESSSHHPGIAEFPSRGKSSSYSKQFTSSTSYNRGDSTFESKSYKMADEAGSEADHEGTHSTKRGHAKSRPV
T1 sequence 2: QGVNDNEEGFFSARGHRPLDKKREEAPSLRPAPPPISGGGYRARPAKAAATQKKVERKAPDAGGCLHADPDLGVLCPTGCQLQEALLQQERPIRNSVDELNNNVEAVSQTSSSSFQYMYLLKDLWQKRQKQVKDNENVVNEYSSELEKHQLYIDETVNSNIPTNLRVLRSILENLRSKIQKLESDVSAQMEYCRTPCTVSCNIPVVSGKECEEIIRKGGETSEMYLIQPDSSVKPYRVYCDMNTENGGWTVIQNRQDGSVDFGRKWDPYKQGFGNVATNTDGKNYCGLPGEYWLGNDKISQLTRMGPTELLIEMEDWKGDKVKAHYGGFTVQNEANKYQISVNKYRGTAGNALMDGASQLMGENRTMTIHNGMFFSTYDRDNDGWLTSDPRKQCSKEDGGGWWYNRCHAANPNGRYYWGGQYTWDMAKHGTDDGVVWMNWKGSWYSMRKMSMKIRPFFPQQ
T1 sequence 3: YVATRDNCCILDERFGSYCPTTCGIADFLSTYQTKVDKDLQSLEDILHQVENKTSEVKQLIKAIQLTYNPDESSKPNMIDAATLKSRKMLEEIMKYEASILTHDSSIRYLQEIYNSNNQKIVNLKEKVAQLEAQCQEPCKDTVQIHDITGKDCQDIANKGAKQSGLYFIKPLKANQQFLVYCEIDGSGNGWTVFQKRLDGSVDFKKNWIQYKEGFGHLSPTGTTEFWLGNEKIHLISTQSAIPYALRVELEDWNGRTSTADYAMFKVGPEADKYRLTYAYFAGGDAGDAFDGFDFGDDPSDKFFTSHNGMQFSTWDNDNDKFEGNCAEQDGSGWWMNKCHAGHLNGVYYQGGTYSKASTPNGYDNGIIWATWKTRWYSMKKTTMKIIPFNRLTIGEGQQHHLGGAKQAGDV

human fibrinogen [6] = target: T1, human fibrinogen; assay: refers to the SPOT membrane analysis of FIG. 11

In the case of “FbsA protein of GBS strain 6313 (native) (receptor)”, the percent of total bacteria bound to immobilized fibrinogen (human fibrinogen (human) [1]) is reported as 45%, the percent of total bacteria bound to immobilized fibrinogen (human fibrinogen (human) [2]) is reported as 45% and the percent binding of 125I-labelled soluble fibrinogen (human fibrinogen (human) [3]) is reported as 50%. For the same molecule, the percent of total radiolabelled fibrinogen bound (human fibrinogen (human) [4]) was 50%.

“FbsA protein of GBS strain 706 S2 (native) (receptor)” was tested, and the percent of total bacteria bound to immobilized fibrinogen (human fibrinogen (human) [1]) was 14%, the percent of total bacteria bound to immobilized fibrinogen (human fibrinogen (human) [2]) was 15% and the percent binding of 125I-labelled soluble fibrinogen (human fibrinogen (human) [3]) was 8%.

“FbsA protein of GBS strain O90R (native) (receptor)” gave a percent of total bacteria bound to immobilized fibrinogen (human fibrinogen (human) [1]) of 18%, a percent of total bacteria bound to immobilized fibrinogen (human fibrinogen (human) [2]) of 24% and a percent binding of 125I-labelled soluble fibrinogen (human fibrinogen (human) [3]) of 12%.

In the case of “FbsA protein of GBS strain SS1169 (native) (receptor)”, the percent of total bacteria bound to immobilized fibrinogen (human fibrinogen (human) [1]) is reported as 7%.

“FbsA protein of GBS strain 0176 H4A (native) (receptor)” gave a percent of total bacteria bound to immobilized fibrinogen (human fibrinogen (human) [1]) of 4%.

B1: scrambled peptide GLSQNRDVRENQRARE (peptide)
peptide: GLSQNRDVRENQRARE
notes: Same amino acids as the repeat unit in a different order; spotted on cellulose; also called randomised peptide
B1: no binding (tested: 2 µg/ml of human fibrinogen) (human fibrinogen [5]).

B2: alanine mutant peptide GAVLERRQRDAENRSQ (peptide)
peptide: GAVLERRQRDAENRSQ
notes: also called peptide <2>; N2A
B2: no binding (human fibrinogen [6]).

B3: alanine mutant peptide GNALERRQRDAENRSQ (peptide)
peptide: GNALERRQRDAENRSQ
notes: also called peptide <3>; V3A
B3: no binding (human fibrinogen [6]).

B4: alanine mutant peptide GNVLERAQRDAENRSQ (peptide)
peptide: GNVLERAQRDAENRSQ
notes: also called peptide <5>; R7A
B4: no binding (human fibrinogen [6]).
